# Assay results published in patent publication US20190248900A1 (Y BIOLOGICS, published 2019).
# Residue numbers refer to the chain shown, from its start.
# T1: SPARC (Homo sapiens (Human), UniProt P09486 18-303)
# T1 sequence: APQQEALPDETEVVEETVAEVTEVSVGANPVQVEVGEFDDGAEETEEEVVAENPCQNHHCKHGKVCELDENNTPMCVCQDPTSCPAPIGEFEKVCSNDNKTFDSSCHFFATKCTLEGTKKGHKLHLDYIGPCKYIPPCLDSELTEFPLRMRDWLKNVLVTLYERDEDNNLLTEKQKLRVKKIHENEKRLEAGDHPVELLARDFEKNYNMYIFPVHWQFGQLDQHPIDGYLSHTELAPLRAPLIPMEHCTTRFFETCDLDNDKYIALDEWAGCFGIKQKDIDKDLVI
# T2: CD320 (Homo sapiens (Human), UniProt Q9NPF0 36-229)
# T2 sequence: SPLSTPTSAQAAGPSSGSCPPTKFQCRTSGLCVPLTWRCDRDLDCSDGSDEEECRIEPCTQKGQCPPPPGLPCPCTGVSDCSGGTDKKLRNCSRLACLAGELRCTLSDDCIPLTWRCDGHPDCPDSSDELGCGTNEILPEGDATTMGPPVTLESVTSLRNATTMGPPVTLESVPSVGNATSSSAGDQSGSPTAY
# T3: SPOCK1 (Homo sapiens (Human), UniProt Q08629 22-439)
# T3 sequence: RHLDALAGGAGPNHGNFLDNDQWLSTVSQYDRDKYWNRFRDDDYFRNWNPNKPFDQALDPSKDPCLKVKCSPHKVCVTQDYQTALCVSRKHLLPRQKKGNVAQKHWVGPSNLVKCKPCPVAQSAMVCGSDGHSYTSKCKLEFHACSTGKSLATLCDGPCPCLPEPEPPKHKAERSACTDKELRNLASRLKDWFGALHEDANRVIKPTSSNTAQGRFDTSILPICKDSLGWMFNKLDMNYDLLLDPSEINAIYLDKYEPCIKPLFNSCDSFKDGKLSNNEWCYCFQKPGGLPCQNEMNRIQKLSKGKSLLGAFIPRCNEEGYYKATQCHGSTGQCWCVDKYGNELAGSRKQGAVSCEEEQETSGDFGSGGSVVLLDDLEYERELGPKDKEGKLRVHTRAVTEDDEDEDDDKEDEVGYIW
# T4: CD209 (Homo sapiens (Human), UniProt Q9NNX6 59-404)
# T4 sequence: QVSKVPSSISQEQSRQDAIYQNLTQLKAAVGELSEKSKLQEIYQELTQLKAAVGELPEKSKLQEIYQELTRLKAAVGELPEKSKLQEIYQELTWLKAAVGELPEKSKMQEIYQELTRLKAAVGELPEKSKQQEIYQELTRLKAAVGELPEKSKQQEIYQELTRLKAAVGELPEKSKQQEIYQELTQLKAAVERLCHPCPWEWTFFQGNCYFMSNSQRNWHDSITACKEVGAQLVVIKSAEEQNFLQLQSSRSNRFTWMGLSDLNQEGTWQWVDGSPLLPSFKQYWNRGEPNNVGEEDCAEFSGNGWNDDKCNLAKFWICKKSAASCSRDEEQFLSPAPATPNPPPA
# T5: SCARF1 (Homo sapiens (Human), UniProt Q14162 20-421)
# T5 sequence: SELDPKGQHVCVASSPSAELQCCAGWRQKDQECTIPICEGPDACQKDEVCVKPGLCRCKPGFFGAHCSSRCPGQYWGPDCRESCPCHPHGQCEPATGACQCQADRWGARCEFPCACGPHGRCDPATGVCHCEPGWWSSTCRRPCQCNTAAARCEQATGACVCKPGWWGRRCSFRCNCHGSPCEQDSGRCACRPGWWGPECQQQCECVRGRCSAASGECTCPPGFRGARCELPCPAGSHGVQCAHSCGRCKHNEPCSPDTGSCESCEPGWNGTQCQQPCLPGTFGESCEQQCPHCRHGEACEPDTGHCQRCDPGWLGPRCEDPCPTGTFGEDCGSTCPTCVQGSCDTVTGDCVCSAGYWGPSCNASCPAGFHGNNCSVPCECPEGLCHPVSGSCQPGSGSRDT
# T6: LRTM1 (Homo sapiens (Human), UniProt Q9HBL6 28-288)
# T6 sequence: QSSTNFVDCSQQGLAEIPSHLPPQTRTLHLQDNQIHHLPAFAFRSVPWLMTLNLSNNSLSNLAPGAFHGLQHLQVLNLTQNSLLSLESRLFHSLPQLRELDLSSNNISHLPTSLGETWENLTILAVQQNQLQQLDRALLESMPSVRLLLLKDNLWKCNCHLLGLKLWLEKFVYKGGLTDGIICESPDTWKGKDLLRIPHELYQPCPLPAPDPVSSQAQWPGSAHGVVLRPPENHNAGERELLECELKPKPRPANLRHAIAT
# T7: C2orf28 (Homo sapiens (Human), UniProt Q6UW56 31-199)
# T7 sequence: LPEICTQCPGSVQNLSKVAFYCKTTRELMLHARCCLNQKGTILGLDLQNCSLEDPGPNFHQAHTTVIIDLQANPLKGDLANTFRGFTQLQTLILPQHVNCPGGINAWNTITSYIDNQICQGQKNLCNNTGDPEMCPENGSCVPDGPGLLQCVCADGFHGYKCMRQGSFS
# B1: PD1-41C9 (antibody, V domains shown)
# VH: QMQLVESGGGVVQPGRSLRLSCAASGFTFSSYAMHWVRQAPGKGLEWVAVISYDGSNKYYADSVKGRFTISRDNSKNTLYLQMNRLRSEDTAVYYCTTTTFDSWGQGTLITVSS
# VL: DIVMTQTPLSLPVTPGEAASISCRSSQSLLDSEDGNTYLDWYLQKPGQSPQLLIYTLSHRASGVPDRFSGSGSGTDFTLKISRVAAEDVGLYYCLQRMGFPYTFGQGTKLDIK
# notes: scFv-phage in the screening ELISA; whole IgG in the other assays
# B2: PD1-49A2 (antibody, V domains shown)
# VH: B1 VH with M2V, S75P, R85S, S88A, Q106R, I110V
# VL: B1 VL with T7S, A18P, L30F, E33D, A85E, L91I, L110V, D111E
# notes: scFv-phage in the screening ELISA; whole IgG in the other assays; also called Parent 49A2
# B3: PD1-45D6 (antibody, V domains shown)
# VH: QVQLVESGGGVVQPGRSLRLSCAASGFTFSSYAMHWVRQVPGKGLEWVAVISYDGNDKYYADSVKGRFTISRDNSKNTLYLQMNSLRAEDTAVYYCVPTTFEYWGQGSQVTVSS
# VL: DIVMTQTPLSLPVTPGEAASISCRSSQSLLDSDDGKTYLDWYLQKPGQSPQLLIYTLSYRASGVPDRFSGSGSGTEFNLRISRVEAEDVGIYYCMQRVEFPFTFGQGTKLDIK
# notes: as for B1
# Biological target: T1, SPARC
# Experiment: ELISA
row,Binder,binding result
1,B1,no binding (tested: 1 ug/ml)
2,B2,no binding (tested: 1 ug/ml)
3,B3,no binding (tested: 1 ug/ml)

# Biological target: CDCP1 (Homo sapiens (Human), UniProt Q9H5V8 30-667)
# Sequence (Q9H5V8 30-667 limits assumed): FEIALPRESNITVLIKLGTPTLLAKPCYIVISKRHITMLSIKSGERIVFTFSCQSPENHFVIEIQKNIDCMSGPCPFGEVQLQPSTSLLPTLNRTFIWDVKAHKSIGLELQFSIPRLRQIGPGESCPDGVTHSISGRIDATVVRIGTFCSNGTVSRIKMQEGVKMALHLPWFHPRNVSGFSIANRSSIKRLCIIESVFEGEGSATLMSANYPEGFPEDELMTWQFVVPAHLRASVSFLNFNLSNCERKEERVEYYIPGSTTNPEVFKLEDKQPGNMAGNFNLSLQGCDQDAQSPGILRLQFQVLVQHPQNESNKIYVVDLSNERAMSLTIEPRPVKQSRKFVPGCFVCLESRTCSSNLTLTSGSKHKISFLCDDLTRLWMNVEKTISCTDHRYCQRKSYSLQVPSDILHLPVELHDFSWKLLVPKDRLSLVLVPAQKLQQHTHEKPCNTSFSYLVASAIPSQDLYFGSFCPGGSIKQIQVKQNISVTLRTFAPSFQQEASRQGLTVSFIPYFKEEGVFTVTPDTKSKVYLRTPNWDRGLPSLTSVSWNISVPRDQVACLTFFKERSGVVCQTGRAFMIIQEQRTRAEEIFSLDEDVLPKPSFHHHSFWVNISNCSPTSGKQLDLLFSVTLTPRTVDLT
# Experiment: ELISA
row,Binder,binding result
1,B1,no binding (tested: 1 ug/ml)
2,B2,no binding (tested: 1 ug/ml)
3,B3,no binding (tested: 1 ug/ml)

# Biological target: DKK3 (Homo sapiens (Human), UniProt Q9UBP4 22-350)
# Sequence (Q9UBP4 22-350 limits assumed): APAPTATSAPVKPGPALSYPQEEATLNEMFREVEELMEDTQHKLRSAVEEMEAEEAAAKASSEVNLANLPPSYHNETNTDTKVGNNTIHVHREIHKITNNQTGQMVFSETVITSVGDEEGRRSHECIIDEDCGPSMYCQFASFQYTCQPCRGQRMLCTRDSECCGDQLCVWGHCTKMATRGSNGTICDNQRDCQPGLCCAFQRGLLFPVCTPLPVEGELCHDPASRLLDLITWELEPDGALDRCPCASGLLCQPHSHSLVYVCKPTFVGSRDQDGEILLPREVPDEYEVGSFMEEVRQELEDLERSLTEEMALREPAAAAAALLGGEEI
# Experiment: ELISA
row,Binder,binding result
1,B1,no binding (tested: 1 ug/ml)
2,B2,no binding (tested: 1 ug/ml)
3,B3,no binding (tested: 1 ug/ml)

# Biological target: T2, CD320
# Experiment: ELISA
row,Binder,binding result
1,B1,no binding (tested: 1 ug/ml)
2,B2,no binding (tested: 1 ug/ml)
3,B3,no binding (tested: 1 ug/ml)

# Biological target: T3, SPOCK1
# Experiment: ELISA
row,Binder,binding result
1,B1,no binding (tested: 1 ug/ml)
2,B2,no binding (tested: 1 ug/ml)
3,B3,no binding (tested: 1 ug/ml)

# Biological target: T4, CD209
# Experiment: ELISA
row,Binder,binding result
1,B1,no binding (tested: 1 ug/ml)
2,B2,no binding (tested: 1 ug/ml)
3,B3,no binding (tested: 1 ug/ml)

# Biological target: T5, SCARF1
# Experiment: ELISA
row,Binder,binding result
1,B1,no binding (tested: 1 ug/ml)
2,B2,no binding (tested: 1 ug/ml)
3,B3,no binding (tested: 1 ug/ml)

# Biological target: T6, LRTM1
# Experiment: ELISA
row,Binder,binding result
1,B1,no binding (tested: 1 ug/ml)
2,B2,no binding (tested: 1 ug/ml)
3,B3,no binding (tested: 1 ug/ml)

# Biological target: APCDD1 (Homo sapiens (Human), UniProt Q8J025 27-492)
# Sequence (Q8J025 27-492 limits assumed): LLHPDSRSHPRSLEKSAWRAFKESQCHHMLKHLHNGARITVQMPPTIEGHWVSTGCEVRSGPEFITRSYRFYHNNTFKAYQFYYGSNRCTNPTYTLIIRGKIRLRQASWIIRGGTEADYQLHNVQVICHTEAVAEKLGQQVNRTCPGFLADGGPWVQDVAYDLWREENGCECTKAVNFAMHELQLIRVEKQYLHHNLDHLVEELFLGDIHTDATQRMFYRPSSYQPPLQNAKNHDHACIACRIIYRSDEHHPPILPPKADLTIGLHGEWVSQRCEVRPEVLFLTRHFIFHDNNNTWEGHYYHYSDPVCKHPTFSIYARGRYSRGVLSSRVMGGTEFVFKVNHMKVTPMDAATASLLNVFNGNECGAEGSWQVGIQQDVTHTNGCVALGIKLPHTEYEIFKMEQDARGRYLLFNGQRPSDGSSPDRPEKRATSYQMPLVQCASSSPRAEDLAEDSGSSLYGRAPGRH
# Experiment: ELISA
row,Binder,binding result
1,B1,no binding (tested: 1 ug/ml)
2,B2,no binding (tested: 1 ug/ml)
3,B3,no binding (tested: 1 ug/ml)

# Biological target: T7, C2orf28
# Experiment: ELISA
row,Binder,binding result
1,B1,no binding (tested: 1 ug/ml)
2,B2,no binding (tested: 1 ug/ml)
3,B3,no binding (tested: 1 ug/ml)

# Biological target: PLXDC2 (Homo sapiens (Human), UniProt Q6UX71 31-454)
# Sequence (Q6UX71 31-454 limits assumed): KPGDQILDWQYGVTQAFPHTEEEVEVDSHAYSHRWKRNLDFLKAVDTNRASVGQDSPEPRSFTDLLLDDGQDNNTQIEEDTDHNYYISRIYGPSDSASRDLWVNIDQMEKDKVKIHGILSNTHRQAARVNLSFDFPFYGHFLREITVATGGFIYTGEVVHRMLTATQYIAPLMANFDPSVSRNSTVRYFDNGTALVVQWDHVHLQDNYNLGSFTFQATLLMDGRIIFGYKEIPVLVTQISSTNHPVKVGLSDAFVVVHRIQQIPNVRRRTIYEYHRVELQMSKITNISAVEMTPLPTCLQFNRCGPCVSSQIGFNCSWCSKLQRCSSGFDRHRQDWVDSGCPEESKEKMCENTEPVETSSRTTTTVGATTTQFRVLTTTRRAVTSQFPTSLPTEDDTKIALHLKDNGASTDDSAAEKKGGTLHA
# Experiment: ELISA
row,Binder,binding result
1,B1,no binding (tested: 1 ug/ml)
2,B2,no binding (tested: 1 ug/ml)
3,B3,no binding (tested: 1 ug/ml)

# Biological target: HAPLN4 (Homo sapiens (Human), UniProt Q86UW8 30-402)
# Sequence (Q86UW8 30-402 limits assumed): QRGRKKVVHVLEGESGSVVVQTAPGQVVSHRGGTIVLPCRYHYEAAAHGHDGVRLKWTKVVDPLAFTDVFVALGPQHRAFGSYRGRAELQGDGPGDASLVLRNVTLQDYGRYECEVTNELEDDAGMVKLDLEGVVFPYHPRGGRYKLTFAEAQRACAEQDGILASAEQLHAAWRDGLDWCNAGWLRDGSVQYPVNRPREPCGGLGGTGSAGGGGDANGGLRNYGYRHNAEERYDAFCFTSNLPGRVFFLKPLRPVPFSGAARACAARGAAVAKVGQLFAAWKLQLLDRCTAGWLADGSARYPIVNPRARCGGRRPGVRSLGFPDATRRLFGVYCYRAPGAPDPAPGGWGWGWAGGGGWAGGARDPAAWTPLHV
# Experiment: ELISA
row,Binder,binding result
1,B1,no binding (tested: 1 ug/ml)
2,B2,no binding (tested: 1 ug/ml)
3,B3,no binding (tested: 1 ug/ml)
